Data: publication PMC8604967
No end group written: not given here. *: point of attachment. FITC = O=C1OC2(c3ccc(O)cc3Oc3cc(O)ccc32)c2ccc(NC(=S)*)cc21

Target: yeast-displayed E4 peptide
Test: flow cytometry on cells; E4 displayed on yeast cells; FITC-K4-TAMRA added at 100 nM, 15 min, 4 °C, PBS containing 5% immunoblock, two washings; 488 nm laser, 525/50 and 585/30 filters

{FITC}-KIAALKEKIAALKEKIAALKEKIAALKEC(5‑TAMRA C6 maleimide) [FITC-K4-TAMRA]
mean FITC and TAMRA fluorescence: 10000
